From paper PMC5291321 (Science (New York, N.Y.), 2016)
Like-named read-outs stand apart in the source and are kept apart here.

T1: full-length GluD2 (GluD2FL) (human, UniProt O43424 24-1007)
T1 sequence (looked up): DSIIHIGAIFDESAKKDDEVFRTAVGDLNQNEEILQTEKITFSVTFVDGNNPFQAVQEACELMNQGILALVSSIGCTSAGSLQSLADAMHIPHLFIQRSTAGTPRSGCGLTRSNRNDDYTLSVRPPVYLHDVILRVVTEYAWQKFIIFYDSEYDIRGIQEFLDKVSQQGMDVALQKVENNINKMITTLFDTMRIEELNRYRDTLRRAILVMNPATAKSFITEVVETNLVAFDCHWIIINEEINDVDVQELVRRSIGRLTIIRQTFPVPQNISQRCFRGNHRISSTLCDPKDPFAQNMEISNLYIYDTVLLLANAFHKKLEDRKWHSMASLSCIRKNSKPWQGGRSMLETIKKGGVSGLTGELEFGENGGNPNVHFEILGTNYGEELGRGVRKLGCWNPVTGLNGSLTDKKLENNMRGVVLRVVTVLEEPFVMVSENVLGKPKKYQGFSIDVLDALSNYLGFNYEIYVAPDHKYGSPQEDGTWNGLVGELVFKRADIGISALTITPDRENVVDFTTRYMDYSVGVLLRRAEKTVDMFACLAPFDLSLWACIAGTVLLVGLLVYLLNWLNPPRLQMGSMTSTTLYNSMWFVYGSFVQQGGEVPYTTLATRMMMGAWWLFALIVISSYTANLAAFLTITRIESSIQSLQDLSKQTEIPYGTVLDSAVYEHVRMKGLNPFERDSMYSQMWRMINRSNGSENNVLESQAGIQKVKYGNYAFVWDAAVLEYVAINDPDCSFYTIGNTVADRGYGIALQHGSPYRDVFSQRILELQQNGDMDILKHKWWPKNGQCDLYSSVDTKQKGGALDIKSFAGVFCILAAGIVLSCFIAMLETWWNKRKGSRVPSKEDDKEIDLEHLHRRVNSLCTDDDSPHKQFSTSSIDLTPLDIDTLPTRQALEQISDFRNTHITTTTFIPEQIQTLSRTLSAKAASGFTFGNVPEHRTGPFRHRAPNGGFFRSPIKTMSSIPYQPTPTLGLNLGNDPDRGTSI


How the values were obtained:
crystal structure [1] = biological target: the molecule itself; experiment: crystal structure
[2] = biological target: T1, full-length GluD2 (GluD2FL); experiment: SPR
crystal structure [3] = biological target: the molecule itself; experiment: crystal structure; remark: listed apart in the source

Row | Kd [2] | Binder | stoichiometry N (crystal structure [1]) | stoichiometry N (crystal structure [3])
1 | – | mouse GluD1 amino-terminal domain (GluD1ATD) (domain or fragment) DSIIHIGAIFEENAAKDDRVFQLAVSDLSLNDDILQSEKITYSIKVIEANNPFQAVQEACDLMTQGILALVTSTGCASANALQSLTDAMHIPHLFVQRNPGGSPRTACHLNPSPDGEAYTLASRPPVRLNDVMLRLVTELRWQKFVMFYDSEYDIRGLQSFLDQASRLGLDVSLQKVDKNISHVFTSLFTTMKTEELNRYRDTLRRAILLLSPQGAHSFINEAVETNLASKDSHWVFVNEEISDPEILDLVHSALGRMTVVRQIFPSAKDNQKCMRNNHRISSLLCDPQEGYLQMLQISNLYLYDSVLMLANAFHRKLEDRKWHSMASLNCIRKSTKPWNGGRSMLDTIKKGHITGLTGVMEFREDSSNPYVQFEILGTTYSETFGKDMRKLATWDSEKGLNGSLQERPMGSRLQG | 2 | –
2 | ~125 nM | full-length Cbln1 (Cbln1FL) (natural protein, human, UniProt P23435 22-193, looked up) QNETEPIVLEGKCLVVCDSNPTSDPTGTALGISVRSGSAKVAFSAIRSTNHEPSEMSNRTMIIYFDQVLVNIGNNFDSERSTFIAPRKGIYSFNFHVVKVYNRQTIQVSLMLNGWPVISAFAGDQDVTREAASNGVLIQMEKGDRAYLKLERGNLMGGWKYSTFSGFLVFPL | – | –
3 | – | GluD2 amino-terminal domain (GluD2ATD) (domain or fragment, human) DSIIHIGAIFDESAKKDDEVFRTAVGDLNQNEEILQTEKITFSVTFVDGNNPFQAVQEACELMNQGILALVSSIGCTSAGSLQSLADAMHIPHLFIQRSTAGTPRSGCGLTRSNRNDDYTLSVRPPVYLHDVILRVVTEYAWQKFIIFYDSEYDIRGIQEFLDKVSQQGMDVALQKVENNINKMITTLFDTMRIEELNRYRDTLRRAILVMNPATAKSFITEVVETNLVAFDCHWIIINEEINDVDVQELVRRSIGRLTIIRQTFPVPQNISQRCFRGNHRISSTLCDPKDPFAQNMEISNLYIYDTVLLLANAFHKKLEDRKWHSMASLSCIRKNSKPWQGGRSMLETIKKGGVSGLTGELEFGENGGNPNVHFEILGTNYGEELGRGVRKLGCWNPVTGLNGSLTDKKLENNMRG | 2 | 4
